What all share (type): in vivo
The test system of one series is total lipase. The experiment in a line: Total lipase activity in post-heparin plasma (radiolabelled triolein, apo CII). Conditions: human AA4RP transgenic mice, FVB/N background. The procedure: (§1) The test was carried out on post-heparin plasma (collected 5 min after heparin injection) from transgenic mice and control mice with a FVB/N genetic background. Total lipase activity was determined by incubation with radiolabelled triolein and in the presence of a cofactor (apo CII). HL activity was determined after incubation of each plasma sample with triolein but in this case in the absence of apo CII and in the presence of 1 M NaCl to eliminate LpL activity. Lipase activity in each plasma sample was then calculated by determining the number of moles of free fatty acid. Finally, LpL activity was calculated by subtracting HL activity from total lipase activity.

A further series relates to apo CIII. The experiment in a line: Apo CIII assay by immuno-nephelometry in mice overexpressing human AA4RP. Conditions: AA4RP transgenic mice, lipid-rich diet. The protocol: Apo CIII in mice overexpressing human AA4RP was assayed by immuno-nephelometry on an ARRAY® immunochemistry system (Beckman Coulter, Villepinte, France). Pooled sera from normolipidic mice were used as standard; the apo CIII concentration therein was 25 μg/ml. A calibration curve from 4 μg/ml to 25 μg/ml was prepared by diluting the standard in 0.01 M potassium phosphate pH 7.2.
Plasma samples from mice overexpressing human AA4RP or not, maintained on a lipid-rich diet, and plasma samples from knock out homozygous (−/−), heterozygous (+/−) or wild type (+/+) mice were diluted 1/6 or 1/12 in the same conditions as the standard. Forty-two microliters of each calibration point and each sample from the different mice under study were incubated with 42 μl of mouse anti-apo CIII (in a reaction cell containing polyethylene glycol (PEG)). The apo CIII concentration in the sample is directly proportional to the light intensity reflected by the precipitate formed during the antigen-antibody reaction.

The nature of series [1]: Triglyceride levels in AA4RP transgenic mice on a lipid-rich diet. The protocol: Samples from AA4RP transgenic mice or control mice maintained on a lipid-rich diet were diluted 1/3 or 1/5in physiological serum, then assayed for triglycerides against a calibration curve prepared with CFAS lipid calibrator, Ref. 759350 (Boehringer Mannheim GmbH, Germany). The calibration curve covered a concentration range of 16 to 500 μg/ml. 100 μl of each sample dilution or calibration point were deposited in each well of a 96-well titration plate. Next, 200 μl of triglyceride reagent Ref. 701912 (Boehringer Mannheim GmbH, Germany) were added to each well and the plate was incubated at 37° C. for 30 min. Optical densities (OD) were read on a spectrophotometer set at 492 nm. Triglyceride concentrations in each sample were calculated from a standard curve plotted as a linear equation y=ax+b, where y represents OD and x represents triglyceride concentration.

A further series has as its system HL. The experiment in a line: HL activity in post-heparin plasma (triolein, no apo CII, 1 M NaCl). Conditions: human AA4RP transgenic mice, FVB/N background. The procedure:
as §1

Series [2] can be described thus: Triglyceride distribution in VLDL, LDL and HDL (Superose 6 FPLC) of plasma. Conditions: AA4RP transgenic mice versus control mice, plasma fractions. The procedure:
The distribution of triglycerides in VLDL, LDL and HDL was studied on 200 μl fractions of plasma from AA4RP transgenic mice or control mice maintained on a lipid-rich diet.
The different particles were fractionated on a Pharmacia Superose 6 column integrated in an AKTA FPLC system (Pharmacia Biotech, Umeå, Sweden). The different fractions were eluted with 0.01 M PBS, 0.1 M NaCl, pH 7.2 at a flow rate of 0.2 ml/min. The triglyceride concentration in each fraction was determined as described hereinabove.

The subject of a further series is LpL. Briefly: LpL activity in post-heparin plasma (total lipase minus HL). Conditions: human AA4RP transgenic mice, FVB/N background. The procedure: as §1

B1: AA4RP: Protein of 366 amino acids (SEQ ID NO 1), apolipoprotein AIV related protein; overexpressed in transgenic mice (protein, listed as Homo sapiens)
chain: MASMAAVLTWALALLSAFSATQARKGFWDYFSQTSGDKGRVEQIHQQKMAREPATLKDSLEQDLNNMNKFLEKLRPLSGSEAPRLPQDPVGMRRQLQEELEEVKARLQPYMAEAHELVGWNLEGLRQQLKPYTMDLMEQVALRVQELQEQLRVVGEDTKAQLLGGVDEAWALLQGLQSRVVHHTGRFKELFHPYAESLVSGIGRHVQELHRSVAPHAPASPARLSRCVQVLSRKLTLKAKALHARIQQNLDQLREELSRAFAGTGTEEGAGPDPQMLSEEVRQRLQAFRQDTYLQIAAFTRAIDQETEEVQQQLAPPPPGHSAFAPEFQQTDSGKVLSKLQARLDDLWEDITHSLHDQGHSHLGDP
B1: the “Total lipase activity versus controls” value in the series on total lipase was “significant increase”. In addition, the “Apo CIII level versus control mice” value in the series with apo CIII is reported as “approximately three times lower”. Also, the “Apo CIII” value in the series on apo CIII (plasma, mean) came to 30.70 µg/mL. The “Triglyceride levels versus control mice” value in series [1] (Student's t test p<0.001) is given as “significantly lower”. Also, the Triglycerides in series [1] (mean) was determined as 0.361 mg/mL. Also, the “HL activity versus controls” value in the series on HL is recorded as “significant increase”. Moreover, the “Accumulation of triglyceride-rich particles after a lipid-rich diet” value in series [2] was “not observed”. In addition, the “LpL activity versus controls” value in the series with LpL is on record as “significant increase”.

These data come from US20040198656A1, “Methods of screening molecules that are used to prevent cardiovascular diseases” (priority 2001, published 2004).
